For assay [1], the target named is T1, human FOLR1-mFc_Avi-tag (sAg_303) (human, UniProt P15328 25-234, limits assumed).
T1 construct: also called human FOLR1 (sAg_303); recombinant human FOLR1
As to the kind of experiment: ELISA, plate coated with human FOLR1-mFc_Avi-tag (sAg_303), one-site fit, mean of 3. On the procedure: (§1) 96 well ELISA plates (F96 Maxisorp Immuno Plate, Nunc, cat: 442404) were coated overnight at 4° C. with 50 μL/well of 10 μg/mL human FOLR1-mFc_Avi-tag in DPBS. After overnight incubation plates were washed three times with PBST and blocked with Candor Blocking solution for 2 h at RT under mild agitation. […] After incubation with the secondary antibodies, the plate was washed five times with PBST and one time with PBS. Chromogenic substrate (1:1 mixture of TMB:TMBB, SeraCare cat: 5120-0048 and 5120-0037) was added and the reaction was stopped by addition of an equal volume of 0.5 M H₂SO₄ after sufficient color development. Absorbance at 450 nm was measured in an ELISA plate reader (Sunrise Absorbance Reader 901000833, Schoeller Instruments). The absorbance values were corrected by subtracting the background of the respective secondary antibody and fitted with a one site binding function (hyperbola) using GraphPad Prism (version 9.3.1. GraphPad Software, La Jolla California USA). KD is the concentration of ligand required to reach half-maximal binding.
On the technique in general: An ELISA detects its analyte on a solid surface through an enzyme-linked reagent.

The target in assay [2] is T2, cynomolgus CD16 expressed on CHO cells (cAg_36) (cynomolgus, UniProt Q8SPW2 17-254).
T2 construct: whole, on cells; also called cyCD16
T2 sequence (Q8SPW2 17-254): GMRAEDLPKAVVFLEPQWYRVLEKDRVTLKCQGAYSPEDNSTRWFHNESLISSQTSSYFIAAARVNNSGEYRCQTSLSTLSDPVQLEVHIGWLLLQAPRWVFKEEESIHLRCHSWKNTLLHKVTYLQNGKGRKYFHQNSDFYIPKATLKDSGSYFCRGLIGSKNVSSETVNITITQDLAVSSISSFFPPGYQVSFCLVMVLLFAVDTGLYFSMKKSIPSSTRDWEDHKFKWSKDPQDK
Description: flow cytometry on cyCD16-transfected CHO cells (cAg_36), on ice, FITC goat anti-human IgG detection. How it is done:
(§2) After washing in FACS buffer, cells were incubated in 50 μL FACS buffer without antibodies or with titrated antibodies starting at a concentration of 1000 nM followed by elven 3-fold serial dilutions for 40-50 min on ice in the dark. […] After washing, binding was measured by flow cytometry and mean fluorescence intensities (MFI) of cell samples were calculated and corrected for background staining using control cells stained with secondary antibodies only.
For orientation: Flow cytometry measures light scatter and fluorescence of single cells or particles in a stream.

Assay [3] concerns the target T3, human FOLR1 endogenously expressed on tumor cell lines (human, UniProt P15328 25-234).
T3 construct: whole, on cells; also called FOLR1-positive tumor cell lines; FOLR1+ target cells
As to the kind of experiment: flow cytometry on IGROV-1 cells (FOLR1 high) at 37 °C, FITC anti-human IgG detection. How it is done: (§3) Cells were collected and centrifuged at 400×g, 5 min, 4° C. Cell pellets were resuspended in FACS buffer (PBS (Invitrogen, cat.: 392-0434) containing 2% h.i. FCS (Invitrogen, cat.: 10500-064), and 0.1% sodium azide (Sigma, cat.: S8032)) at 1-5×10⁶ cells/mL. 100 μL/well of the cell suspension were transferred into U-shaped, 96-well micro plates (0.1-0.5×10⁶ cells per well), cells were pelleted at 400×g, 5 min, 4° C., and resuspended in 100 μL/well of serial dilutions of the indicated antibodies in FACS buffer. After 40-50 min incubation at 37° C., cells were washed 3-times with ice-cold FACS buffer. […] After the final incubation step, cells were washed 2-times with ice-cold FACS buffer, and the cell pellet was resuspended in 100 μL FACS buffer. Fluorescence intensities of >1×10⁴ viable cells were analyzed by flow cytometry and the median fluorescence intensity (MFI) was determined for each sample.

The target of assay [4] is T3, human FOLR1 endogenously expressed on …. As to the kind of experiment: flow cytometry on OVCAR-3 cells, 37 C, one-site fit of MFI, mean. On the procedure: as §3
(§4) Equilibrium dissociation constants (KD) of antibody binding, mean and standard deviation (SD) were calculated by plotting MFI values and fitting a non-linear regression model for one-site binding to hyperbolic dose-response curves using GraphPad Prism for Windows (v9; GraphPad Software; La Jolla California USA).
(§5) Specific antibody binding capacity (SABC) as a marker for FOLR1 expression level on cells was determined on all tumor cell lines using QIFIKIT.

Assay [5] has the same target. Description: flow cytometry on NCI-H2110 cells, 37 C, one-site fit of MFI, mean. On the procedure: as §3, §4, §5
Assay [6] has the same target. As to the kind of experiment: flow cytometry on IGROV-1 cells, 37 C, one-site fit of MFI, mean. On the procedure:
as §3, §4, §5

Assay [7] addresses T4, human CD16A (158F) expressed on CHO cells (cAg_34) (human, UniProt P08637 17-254).
T4 construct: also called huCD16A-transfected CHO cells
As to the kind of experiment: flow cytometry on huCD16A (158F)-transfected CHO cells (cAg_34), on ice, FITC goat anti-human IgG detection. On the procedure:
as §2

Assay [8] has as its target T5, human CD16A (158V) expressed on CHO cells (cAg_35) (human, UniProt P08637 17-254).
T5 construct: also called huCD16A (158V)
As to the kind of experiment: flow cytometry on huCD16A (158V)-transfected CHO cells (printed sAg_35), on ice, FITC goat anti-human IgG detection. On the procedure:
as §2

Assay [9] deals with T3, human FOLR1 endogenously expressed on …. As to the kind of experiment: flow cytometry on HCC-827 cells, 37 C, one-site fit of MFI, mean. On the procedure:
as §3, §4, §5

Assay [10] has as its target CD16A on in vitro differentiated human macrophages (human, UniProt P08637 17-254). Description: cell-based or functional assay.
Assay [11] concerns the target T3, human FOLR1 endogenously expressed on …. As to the kind of experiment: flow cytometry on OVCAR-3 cells (FOLR1 medium) at 37 °C, FITC anti-human IgG detection. How it is done:
as §3

The target in assay [12] is CD16A endogenously expressed on primary human NK cells (human, UniProt P08637 17-254). Description: flow cytometry on primary human NK cells at 37 °C, biotinylated antibody, streptavidin-FITC, without polyclonal human IgG. On the procedure:
Frozen NK cells were thawed, and viability was determined with trypan blue (Sigma-Aldrich, cat.: T8154). Cells have been centrifuged at 400×g, 5 min, 4° C. Cell pellets were resuspended in FACS buffer PBS (Invitrogen, cat.: 392-0434) containing 2% h.i. FCS (Invitrogen, cat.: 10500-064), and 0.1% sodium azide (Sigma, cat.: S8032) at 2×10⁶ cells/mL. 100 μL/well of the cell suspension were transferred into U-shaped 96 well plates, cells were pelleted at 400×g, 5 min. 4° C., and resuspended in 50 μL/well of diluted antibody constructs. […] After 40-50 minutes' incubation at 37° C., cells were washed 3-times with ice-cold FACS buffer. […] After the final incubation step, cells were washed 2-times with ice-cold FACS buffer, and the cell pellet was resuspended in 50 μL FACS buffer. Fluorescence intensity of >1×10⁴ viable cells was analyzed by flow cytometry and the median fluorescence intensity (MFI) was determined for each sample.

Assay [13] deals with T1, human FOLR1-mFc_Avi-tag (sAg_303). As to the kind of experiment: ELISA, plate coated with human FOLR1-mFc_Avi-tag, anti-human Fab-HRP detection, A450. On the procedure: as §1

Data on 1 molecule can be found in US20240417475A1 (AFFIMED, published 2024).

T3 sequence (P15328 25-234): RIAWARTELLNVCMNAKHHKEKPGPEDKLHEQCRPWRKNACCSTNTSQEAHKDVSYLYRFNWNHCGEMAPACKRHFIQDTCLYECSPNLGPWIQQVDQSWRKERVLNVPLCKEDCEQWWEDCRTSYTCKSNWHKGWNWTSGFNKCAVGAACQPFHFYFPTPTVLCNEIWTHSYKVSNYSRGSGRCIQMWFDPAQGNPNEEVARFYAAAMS
CD16A on in vitro differentiated human macrophages, sequence (P08637 17-254 limits assumed): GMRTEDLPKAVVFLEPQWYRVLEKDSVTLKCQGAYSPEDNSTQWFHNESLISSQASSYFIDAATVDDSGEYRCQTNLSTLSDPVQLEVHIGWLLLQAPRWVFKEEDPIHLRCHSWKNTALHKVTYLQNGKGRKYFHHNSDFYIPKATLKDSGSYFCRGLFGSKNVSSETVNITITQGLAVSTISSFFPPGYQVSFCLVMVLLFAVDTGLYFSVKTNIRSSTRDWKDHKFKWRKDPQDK
T1 sequence (P15328 25-234 limits assumed): as the sequence (P15328 25-234) above
T4 sequence (P08637 17-254 limits assumed): as the sequence (P08637 17-254 limits assumed) above
CD16A endogenously expressed on primary human NK cells, sequence (P08637 17-254 limits assumed): as above
T5 sequence (P08637 17-254 F176V limits assumed): as the sequence (P08637 17-254 limits assumed) above, with F160V counted along it

B1: scFv-IgAb_162 (FOLR1×RSV) (bispecific antibody)
heavy: EVQLVESGGGVVQPGRSLRLSCSASGFTFSGYGLSWVRQAPGKGLEWVAMISSGGSYTYYADSVKGRFAISRDNAKNTLFLQMDSLRPEDTGVYFCARHGDDPAWFAYWGQGTPVTVSSASTKGPSVFPLAPSSKSTSGGTAALGCLVKDYFPEPVTVSWNSGALTSGVHTFPAVLQSSGLYSLSSVVTVPSSSLGTQTYICNVNHKPSNTKVDKKVEPKSCDKTHTCPPCPAPEFEGGPSVFLFPPKPKDTLMISRTPEVTCVVVAVSHEDPEVKFNWYVDGVEVHNAKTKPREEQYNSTYRVVSVLTVLHQDWLNGKEYKCKVSNKALPAPIEKTISKAKGQPREPQVYTLPPSREEMTKNQVSLTCLVKGFYPSDIAVEWESNGQPENNYKTTPPVLDSDGSFFLYSKLTVDKSRWQQGNVFSCSVMHEALHNHYTQKSLSLSPGGGGGSGGGGSQVTLRESGPALVKPTQTLTLTCTFSGFSLSTAGMSVGWIRQPPGKALEWLADIWWDDKKHYNPSLKDRLTISKDTSKNQVVLKVTNMDPADTATYYCARDMIFNFYFDVWGQGTTVTVSSGGSGGSGGSGGSGGSGGSDIQMTQSPSTLSASVGDRVTITCSASSRVGYMHWYQQKPGKAPKLLIYDTSKLASGVPSRFSGSGSGTEFTLTISSLQPDDFATYYCFQGSGYPFTFGGGTKVEIK
light: DIQLTQSPSSLSASVGDRVTITCSVSSSISSNNLHWYQQKPGKAPKPWIYGTSNLASGVPSRFSGSGSGTDYTFTISSLQPEDIATYYCQQWSSYPYMYTFGQGTKVEIKRTVAAPSVFIFPPSDEQLKSGTASVVCLLNNFYPREAKVQWKVDNALQSGNSQESVTEQDSKDSTYSLSSTLTLSKADYEKHKVYACEVTHQGLSSPVTKSFNRGEC
notes: also called FOLR1/RSV scFv-IgAb_162; FOLR1×RSV(NIST); copies: 2 + 2
One may read the Kd as the concentration at which binding is half-saturated. The EC50 (read off the curve) is the concentration giving half of the maximal effect. Low values mean a more potent agent, high ones a less potent agent. Take B1: the Kd was 0.06 nM in assay [1]; 2.5 nM in assay [4]; 3 nM in [5]; 5.2 nM in [6]; 3.7 nM in assay [9]. For the same molecule, the binding result is on record as “no binding (tested: 1000 nM)” in assay [2], “no binding (tested: 1000 nM)” in [7], “no binding (tested: 1000 nM)” in assay [8] and “no binding (tested: about 500 nM)” in assay [12]. In addition, the “EC50 (read off the curve)” value in [3] is roughly 4 nM; in assay [11] it was roughly 2 nM; in assay [13], roughly 0.05 nM. The “Phagocytosis [%], 4 h ADCP, DK-MG cells” value in [10] stood at 0%. For the same molecule, in assay [10], the “Phagocytosis [%], 4 h ADCP, HCC-78 cells” value was found to be 0%. For the same molecule, in assay [10], the “Phagocytosis [%], 4 h ADCP, HeLa cells” value stood at 0%.
